The supplement of paper PMC10724198
± gives the standard deviation of the averaged measurements.

Tested on: Saccharomyces cerevisiae
Test: protein stability index of tFT-peptide fusion (C-terminal peptide) (PSI (0-1 scale)); higher = more stable (slower turnover)
Details: genetic background: wild type; temperature: 30 C
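Also: PSI is a weighted mean of sequencing reads over stability bins, variants kept only with over 10 reads, mCherry proximal and sfGFP distal, peptide attached via GGGS linker.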

Sequence	protein stability index
IKKKTNYMNEKI	0.661 ± 0.0096
ISLCSVARLGFA	0.704 ± 0.021
VGQPWRLHFILR	0.648 ± 0.0062
TEKRMIINIKIK	0.735 ± 0.03
YGIGNVNTGRGP	0.703 ± 0.011
LCKGCEGGVMQR	0.666 ± 0.037
GGRLLLLVGFRV	0.583 ± 0.0066
PPSPPPPPPPPL	0.7 ± 0.032
RRRLLCVCDLMM	0.576 ± 0.038
GCEGGWLGEGIG	0.593 ± 0.014
LSIIRSPDWVDC	0.639 ± 0.059
QITYKTLSGINM	0.703 ± 0.065
SAFPSRVIGGGV	0.661 ± 0.01
PHPATSPVARPP	0.678 ± 0.014
CGRLSNAAEPTC	0.792 ± 0.19
LRRRGHCLRGEL	0.6313 ± 0.0023
VGVWRGWDVDCH	0.776 ± 0.061
PHAMNPNTSRVL	0.682 ± 0.008
SLRSSLFSPHHC	0.649 ± 0.044
PPPRSPLLPSPL	0.687 ± 0.019
LGRPCGGVAGEQ	0.637 ± 0.014
TLLTIALLTGNL	0.606 ± 0.063
LALFDPAQRHAR	0.704 ± 0.052
PAACLSLPPPPS	0.706 ± 0.031
VAWSACRLSLWG	0.889 ± 0.016
DDWCLVGGLCDC	0.684 ± 0.033

Sequence	protein stability index
ISSRSMGGCWHA	0.673 ± 0.023
CAGLIDLVGDVS	0.654 ± 0.018
LQEQIHKPPKPQ	0.72 ± 0.00088
AKKKHHKYRRNG	0.6542 ± 0.0048
APVGTPARPSLS	0.725 ± 0.016
GGGGGVCGACVV	0.685 ± 0.016
SPPPNPPRPSSR	0.768 ± 0.014
VVKKDTHVKRKT	0.636 ± 0.027
LGFGCVYCGEAW	0.689 ± 0.033
PYEFRLISRNTR	0.669 ± 0.095
EPLLVSPATPNL	0.7311 ± 0.00091
KCSSEPMCKTCR	0.626 ± 0.053
HGVQEFRVAPEF	0.738 ± 0.035
PSFSPPQVPFPV	0.721 ± 0.06
KKKNRKQKHKQL	0.565 ± 0.014
LPLPPRFRRLYL	0.7 ± 0.038
GVVSSSIFDLWS	0.746 ± 0.12
KKKTRIYKRQKR	0.655 ± 0.077
GGHAAMGRRGRE	0.73 ± 0.14
VALLRDSCLGVV	0.671 ± 0.018
THTPPPHRPSNR	0.682 ± 0.22
CLLLVLCKFGLL	0.556 ± 0.023
VLRHRGEGGPGA	0.67 ± 0.035
GGTWVLGWGLGV	0.714 ± 0.4
SLILRHLSPPTP	0.762 ± 0.15
ERAGPGGARRVD	0.696 ± 0.018

Sequence	protein stability index
GPEYPFRCRRLF	0.665 ± 0.039
GEAKAARNKRMI	0.708 ± 0.024
YWSFRKGGLALY	0.651 ± 0.019
GSGRGRETYIAK	0.67947 ± 0.0002
RKVYHSTRNTRK	0.702 ± 0.11
VGRESVVGEQFV	0.625 ± 0.025
PPRASQSLLAVP	0.6555 ± 0.0035
NNMSFLPMLDYT	0.65 ± 0.042
AWRGLAPRFVLT	0.544 ± 0.01
RPPINRLCPWLL	0.671 ± 0.032
VFAFLKPTGKLV	0.597 ± 0.05
PKYKKKNNKKKT	0.709 ± 0.058
RVALVCGLGCIF	0.683 ± 0.029
TQVGTLANASGP	0.671 ± 0.046
GRSCSSWSSWGF	0.716 ± 0.01
PFPPPRPPPAPP	0.613 ± 0.023
SSPHRFLCLPPP	0.639 ± 0.061
LLPTRPAPHLSL	0.704 ± 0.17
RLDRARTPPAST	0.779 ± 0.05
YREVGGVAERRR	0.695 ± 0.044
FRYLAVSPFGGL	0.749 ± 0.057
LKKSEKLSNKII	0.644 ± 0.041
SRGLPRLLCPPP	0.747 ± 0.025
QIESNLGYWGIG	0.73819 ± 0.00032
RPLTSVTPLPTL	0.6988 ± 0.0067
SVAGGGSACRGC	0.646 ± 0.039

Sequence	protein stability index
LLPPSLLSPPPF	0.696 ± 0.094
PARPQSFPPPNV	0.669 ± 0.035
NFTPRKHARQRP	0.736 ± 0.0088
NGGKDAVVLGGG	0.636 ± 0.054
KKFRKGKKNKRK	0.657 ± 0.03
FSSYDLISFVLV	0.538 ± 0.0099
SRLKAPADTDPN	0.7 ± 0.015
SINPRVYFVDCQ	0.689 ± 0.034
PPPPLLSPPSPP	0.714 ± 0.015
GLCRLLEILKLR	0.63 ± 0.054
SYFVSGADSLIL	0.635 ± 0.017
VAVWWVQCAGGV	0.66131 ± 0.00034
LRSPFPTPSDLV	0.714 ± 0.051
PLAPPTSASRFS	0.6466 ± 0.0027
STSAPPRVPTPR	0.704 ± 0.078
LMLSGFGSFCVA	0.659 ± 0.025
RFCRSGCWFRWG	0.607 ± 0.015
PANASAEGDTSP	0.682 ± 0.0082
LRLPKGVSLVDI	0.6093 ± 0.0053
PLSLPAPPPRPR	0.654 ± 0.017
PPPPPPPPPQPS	0.67 ± 0.08
RGGRGLECAFYI	0.7903 ± 0.001
EWGAGGGVWGLG	0.7684 ± 0.0069
LTRSIKVWRAMR	0.686 ± 0.018
KGKRSRTRKPEE	0.677 ± 0.013
LCPWRYAVLFSP	0.645 ± 0.068

Sequence	protein stability index
GLGGPLSLVYLF	0.629 ± 0.037
PPSSPPSVLPPV	0.666 ± 0.021
PPPSPPCTPSLI	0.696 ± 0.036
VVLPLCRVPSHW	0.688 ± 0.05
IRRRQKYPKKKS	0.6803 ± 0.0059
AHQGSENRNMSV	0.688 ± 0.043
EPESPVTARAKP	0.672 ± 0.031
PPAPARFPFLPA	0.6696 ± 0.001
CDVIGLVRVKRG	0.771 ± 0.047
LPVDPDTIIVVK	0.663 ± 0.019
PEGPHTRTVVPA	0.66 ± 0.0088
YRSVLGREEQLI	0.7 ± 0.057
SPRPPSLPYAPP	0.701 ± 0.019
STPDRFVSRGRQ	0.702 ± 0.043
ISVSLWFRGRYY	0.599 ± 0.034
PAISPPSPPPLP	0.685 ± 0.047
QAANPWQRPFGW	0.689 ± 0.087
IFMHPRATLPAR	0.73 ± 0.076
GRSRAALASHIL	0.612 ± 0.058
VTDTSCRAEVEQ	0.701 ± 0.059
LFRFFPWPPPPA	0.682 ± 0.034
PLPLPPPPHPSL	0.723 ± 0.041
STRRTSKCHQGI	0.711 ± 0.019
RRGWRRGGLGNG	0.683 ± 0.052
IGTGLVLFSPCY	0.69 ± 0.022
AVEVRATVWWWW	0.53259 ± 0.00014

Sequence	protein stability index
CFIPLCPLSFCI	0.609 ± 0.016
PLRGPPPPPLPI	0.677 ± 0.07
PHSTTGPPPPLT	0.695 ± 0.041
LVPLPLPPPPPS	0.672 ± 0.0028
GGGRWGAGVKGV	0.645 ± 0.028
IGRRGINGLWGG	0.627 ± 0.042
RNIRGDYKGRRL	0.6455 ± 0.0019
LPPHSAPLAHGP	0.714 ± 0.065
PPFLDLSLPHIC	0.589 ± 0.016
SLENRFGGFYVG	0.749 ± 0.066
LIVFSFLSCPVP	0.5234 ± 0.0013
SLKRRWPYPNRP	0.681 ± 0.011
VVVGWWALGRFL	0.629 ± 0.018
RVLKIIGFITYA	0.56 ± 0.034
SRVQYVLDRSVF	0.649 ± 0.0099
HFGPRTTLCAPD	0.666 ± 0.034
PPRPLRAEGLES	0.727 ± 0.028
LFFRLRSLLSRS	0.623 ± 0.0063
VVGRVTGGGSDG	0.646 ± 0.037
SHPTLCSFSPPA	0.686 ± 0.035
GMVSPVRIVSRR	0.654 ± 0.024
PPSSTAALPPLP	0.609 ± 0.066
GGCQCFSFPWPP	0.712 ± 0.087
TDSRPKVGKRGN	0.6583 ± 0.0025
PYFVGSGLVVLC	0.5639 ± 0.0055
KTKKKQKQHRKQ	0.686 ± 0.033

Sequence	protein stability index
PLPPPPPPSFPP	0.769 ± 0.057
CVRRKYIGGGEG	0.673 ± 0.025
KKKKKNTIKKNK	0.708 ± 0.0083
EGGGWGRYDGFG	0.69378 ± 9.6e-05
VPAVGGFLMFIG	0.638 ± 0.0094
PDGREQLVNGVT	0.6359 ± 0.0019
DVGIVPGVFWWV	0.738 ± 0.054
AMSSVRCRLWPM	0.761 ± 0.034
EYFLGPLVRLGR	0.762 ± 0.11
PLLQALLPPAPP	0.632 ± 0.026
PVFPPPAPTPPT	0.647 ± 0.046
TNGHIVRLGRRV	0.63 ± 0.011
RGTYACGMGGVG	0.654 ± 0.074
TIRKNKTDVISK	0.667 ± 0.017
SRVTVLGGWRRG	0.701 ± 0.034
VSPRYRDRPGPS	0.692 ± 0.015
RGIEQRHFPKGA	0.7 ± 0.011
LPGGLSPPPFRI	0.715 ± 0.064
RYGDGIELVIGS	0.657 ± 0.011
TPRAALVVSPLV	0.7484 ± 0.0018
SCLFRVFMFHFS	0.553 ± 0.04
RRESAGFGLVWG	0.709 ± 0.017
HLDVRGTRRMGT	0.669 ± 0.042
VPLFLVPGLSAV	0.602 ± 0.0083
RGACGWVDWWGL	0.856 ± 0.13
SECFARSSSPRA	0.7129 ± 0.0041

Sequence	protein stability index
ENQGQKQKKKKR	0.753 ± 0.046
KKKRKDKTKIDK	0.658 ± 0.057
LWGVGAGPEDVG	0.68 ± 0.014
PERFHLVCWVGR	0.712 ± 0.083
PPRSPPLPPAPT	0.762 ± 0.013
PSPSRAPPMAPS	0.6982 ± 0.0013
SPPGYPGNPSPL	0.662 ± 0.021
PPALPPVPPYPL	0.673 ± 0.073
PPPSSAPPPTPP	0.607 ± 0.15
PYFPLRPPSLPI	0.6747 ± 0.0011
PLPPLPPPFLPP	0.641 ± 0.1
GGRFGLGGRLVG	0.658 ± 0.05
SFGLGGSFFWVG	0.7 ± 0.035
QVGTHVTLCEDP	0.679 ± 0.0098
VVRLTNGLFSIL	0.662 ± 0.0094
PPPTSSPSPSIL	0.741 ± 0.07
STPSPLTLPPLP	0.695 ± 0.024
KDKGEKEKRRTK	0.719 ± 0.077
LTTPTIAKTREN	0.691 ± 0.016
GKAIKRPIGIRG	0.683 ± 0.019
